Holding throughout (settings): both partners purified
Test [1] concerns the target T1, PP1α_(7-330) (UniProt P62136 7-330).
T1 construct: Protein Phosphatase 1 alpha (PP1α), residues 7-330; His6-PP1 was captured on the Ni-NTA sensor chip as the SPR ligand; Mn2+ in all buffers; also called Protein Phosphatase 1; His6-PP1; source: E. coli, purified (Ni-NTA, SEC)
The experiment in a line: SPR; as a1 but pH 7.5; His6-PP1 captured on Ni-NTA chip, I3_(27-68) injected; two state model.

Test [2] has as its target T2, PP1α_(7-330) C273S (UniProt P62136 7-330, C273S).
T2 construct: Protein Phosphatase 1 alpha (PP1α), residues 7-330, C273S; His6-tagged form captured on the Ni-NTA sensor chip; also called PP1 C273S; source: E. coli, purified (Ni-NTA, SEC)
The experiment in a line: SPR; His6-PP1 captured on Ni-NTA chip (NiHC200M), I3 variants injected; 25 °C; 20 mM Tris pH 8.0, 500 mM NaCl, 1 mM MnCl2, 0.5 mM TCEP, 0.05% Tween-20; one-to-one one state or one-to-one two state model (TraceDrawer).

For test [3], the target named is T3, PP1α_(7-330) H66K (UniProt P62136 7-330, H66K).
T3 construct: Protein Phosphatase 1 alpha (PP1α), residues 7-330, H66K (lacks the M1 metal); His6-tagged form captured on the Ni-NTA sensor chip; also called PP1 H66K; source: E. coli, purified (Ni-NTA, SEC)
Described as above.

In test [4] the target is T4, PP1α_(7-330) H248N (UniProt P62136 7-330, H248N).
T4 construct: Protein Phosphatase 1 alpha (PP1α), residues 7-330, H248N; His6-tagged form captured on the Ni-NTA sensor chip; also called PP1 H248N; source: E. coli, purified (Ni-NTA, SEC)
Described as above.

The target of test [5] is T1, PP1α_(7-330). The test is described as above.
In test [6] the target is T1, PP1α_(7-330). The experiment in a line: SPR; as a1 but pH 6.5; His6-PP1 captured on Ni-NTA chip, I3_(27-68) injected; two state model.
The target of test [7] is T1, PP1α_(7-330). The experiment in a line: SPR; as a1 but pH 7.0; His6-PP1 captured on Ni-NTA chip, I3_(27-68) injected; two state model.

Values joined by “and” are separate entries in the source; they are usually repeats but may differ in a detail not shown here. Equal values may be shown once.

T1 sequence (P62136 7-330): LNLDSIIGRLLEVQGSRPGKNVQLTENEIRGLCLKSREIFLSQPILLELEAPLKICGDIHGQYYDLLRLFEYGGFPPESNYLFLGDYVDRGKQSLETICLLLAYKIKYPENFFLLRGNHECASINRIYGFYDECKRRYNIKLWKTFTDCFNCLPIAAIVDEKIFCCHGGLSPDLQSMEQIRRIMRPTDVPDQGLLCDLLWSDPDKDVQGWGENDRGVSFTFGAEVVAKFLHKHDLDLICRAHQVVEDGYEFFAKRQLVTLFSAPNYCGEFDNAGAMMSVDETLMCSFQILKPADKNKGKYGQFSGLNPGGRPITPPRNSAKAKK
T3 sequence (P62136 7-330 H66K): as the sequence (P62136 7-330) above, with H60K counted along it
T2 sequence (P62136 7-330 C273S): as the sequence (P62136 7-330) above, with C267S counted along it
T4 sequence (P62136 7-330 H248N): as the sequence (P62136 7-330) above, with H242N counted along it

B1: I3_(27-68) (I3 PP1 interaction domain) (domain or fragment, human, UniProt O60927 27-68, looked up)
chain: SLTIKLRKRKPEKKVEWTSDTVDNEHMGRRSSKCCCIYEKPR
notes: PPP1R11), human, residues 27-68; source: E. coli BL21 (DE3), purified (Ni-NTA, TEV cleavage, heat, SEC); not shown: His6, N-terminal, cleaved; MBP, N-terminal, cleaved
For the molecule B1, the Kd in test [1] was 8.32 nM and 9.2 nM and 9.58 nM; in test [2] it was 16.9 nM and 15.8 nM and 15.6 nM; in test [3], 6.66 nM and 5.65 nM and 5.52 nM; in test [4], 7.74 nM and 5.38 nM; in test [5], 9.87 nM and 7.88 nM and 10.5 nM and 9.04 nM; in test [6] it was 16.2 nM and 17.7 nM and 17.1 nM. Further, the Kd in test [7] was 14.9 nM and 16.2 nM and 17.1 nM.

The values are drawn from publication PMC10066265, “Inhibitor-3 inhibits Protein Phosphatase 1 via a metal binding dynamic protein–protein interaction” (Nature Communications, 2023).
